Results reported in the supplement of paper PMC7125110.
± gives the standard error. For part of these data: Fewer inactive variants are shown than the library holds.

B1: glmS ribozyme (parent)
chain: AUAAAAGCGCCAGAACUACAGAAAUGUAGUUGACGAGGAGGAGGUUUAUCGAAUUUUCGGCGGAUGCCUCCAAA

Key:
Details in all cases: with glucosamine-6-phosphate
glucosamine-6-phosphate [1] = variants of: B1; assay: kcat; higher = faster cleavage; RNA array
In short: (§1)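 Sequenced MiSeq chips were the platform: E. coli RNA polymerase transcribed barcoded ribozyme variants on them in situ, and a hybridised Cy3 probe tracked these at 37 °C. After glucosamine-6-phosphate (40 μM to 10 mM) in HEPES/KCl/Mg(OAc)2 buffer was flowed in, tiles were imaged over ~14 h. Signals normalised to baseline and to non-cleaving reference variants were reduced to per-tile medians and fit to one- or two-exponential decays to obtain kobs. kcat and KM were derived through weighted Michaelis–Menten fits across concentrations.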

glucosamine-6-phosphate [2] = variants of: B1; assay: KM; higher = weaker cofactor use; RNA array
In short: as §1

glucosamine-6-phosphate [3] = variants of: B1; assay: self-cleavage kobs at 640 uM GlcN6P; higher = faster cleavage; RNA array
In short: as §1

glucosamine-6-phosphate [4] = variants of: B1; assay: self-cleavage kobs at 2500 uM GlcN6P; higher = faster cleavage; RNA array
In short: as §1

glucosamine-6-phosphate [5] = variants of: B1; assay: self-cleavage kobs at 10000 uM GlcN6P; higher = faster cleavage; RNA array
In short: as §1

glucosamine-6-phosphate [6] = variants of: B1; assay: self-cleavage kobs at 160 uM GlcN6P; higher = faster cleavage; RNA array
In short: as §1

glucosamine-6-phosphate [7] = variants of: B1; assay: self-cleavage kobs at 40 uM GlcN6P; higher = faster cleavage; RNA array
In short: as §1

Variant | kcat (glucosamine-6-phosphate [1]) | KM (glucosamine-6-phosphate [2]) | self-cleavage kobs at 640 uM GlcN6P (glucosamine-6-phosphate [3]) | self-cleavage kobs at 2500 uM GlcN6P (glucosamine-6-phosphate [4]) | self-cleavage kobs at 10000 uM GlcN6P (glucosamine-6-phosphate [5]) | self-cleavage kobs at 160 uM GlcN6P (glucosamine-6-phosphate [6]) | self-cleavage kobs at 40 uM GlcN6P (glucosamine-6-phosphate [7])
G41A U56G | 0.000193 ± 1.8e-05 s⁻¹ | 1740 ± 310 µM | 5.1e-05 ± 1.4e-05 s⁻¹ | 0.000109 ± 3.5e-05 s⁻¹ | 0.000169 ± 4.7e-05 s⁻¹ | – | –
U55A C58A | 0.000722 ± 7.6e-05 s⁻¹ | 4620 ± 800 µM | 9.44e-05 ± 2e-05 s⁻¹ | 0.000254 ± 4.5e-05 s⁻¹ | 0.000491 ± 7.2e-05 s⁻¹ | – | –
G66U C71A | 0.000234 ± 2.4e-05 s⁻¹ | 1020 ± 250 µM | 8.54e-05 ± 8.7e-06 s⁻¹ | 0.000205 ± 2.4e-05 s⁻¹ | 0.000202 ± 1.9e-05 s⁻¹ | 3.4e-05 ± 1e-05 s⁻¹ | –
C11A C34G G60U A64G | < 1e-05 s⁻¹ | – | < 1e-05 s⁻¹ | – | – | – | < 1e-05 s⁻¹
G51U G60C C70G | 1.22e-05 ± 2.5e-06 s⁻¹ | – | – | – | – | – | < 1e-05 s⁻¹
G29A G66U | 0.000177 ± 5.1e-05 s⁻¹ | – | 6.51e-05 ± 2e-05 s⁻¹ | 6.95e-05 ± 1.9e-05 s⁻¹ | 0.00015 ± 1.9e-05 s⁻¹ | – | –
A42U U45G | 0.00034 ± 6.6e-05 s⁻¹ | 1880 ± 720 µM | 7.31e-05 ± 1.5e-05 s⁻¹ | 0.000225 ± 3.8e-05 s⁻¹ | 0.000278 ± 4.1e-05 s⁻¹ | 4.68e-05 ± 1.4e-05 s⁻¹ | –
A14C U47A | 0.00403 ± 0.00081 s⁻¹ | 2760 ± 760 µM | 0.000676 ± 8.4e-05 s⁻¹ | 0.00184 ± 0.0002 s⁻¹ | 0.00348 ± 0.00048 s⁻¹ | 0.000213 ± 3.2e-05 s⁻¹ | 7.39e-05 ± 9.6e-06 s⁻¹
G59U G66U | < 1e-05 s⁻¹ | – | – | – | < 1e-05 s⁻¹ | – | < 1e-05 s⁻¹
U45C U55G | 0.0035 ± 0.0008 s⁻¹ | 2770 ± 960 µM | 0.000502 ± 9.9e-05 s⁻¹ | 0.00165 ± 0.00048 s⁻¹ | 0.00283 ± 0.00033 s⁻¹ | – | 6.05e-05 ± 8.1e-06 s⁻¹
C11U U49G | 1.33e-05 ± 1.3e-06 s⁻¹ | – | – | – | – | – | < 1e-05 s⁻¹
G40U C67U | 7.51e-05 ± 5.3e-06 s⁻¹ | 1470 ± 410 µM | 2.67e-05 ± 8.3e-06 s⁻¹ | 4.31e-05 ± 8.2e-06 s⁻¹ | 6.64e-05 ± 6e-06 s⁻¹ | – | < 1e-05 s⁻¹
G13A A53U C58A | 0.000493 ± 0.00022 s⁻¹ | – | 6.46e-05 ± 1.6e-05 s⁻¹ | 0.000366 ± 0.0001 s⁻¹ | 0.000332 ± 8.4e-05 s⁻¹ | – | –
G32A U47G | 0.00115 ± 0.0003 s⁻¹ | 3780 ± 1600 µM | 0.000142 ± 3e-05 s⁻¹ | 0.000687 ± 0.00015 s⁻¹ | 0.000806 ± 0.00013 s⁻¹ | 5.19e-05 ± 1.5e-05 s⁻¹ | –
U31G C67U | 0.00291 ± 0.00094 s⁻¹ | 1040 ± 460 µM | 0.00082 ± 0.00012 s⁻¹ | 0.00179 ± 0.00027 s⁻¹ | 0.00391 ± 0.00047 s⁻¹ | 0.000329 ± 6.4e-05 s⁻¹ | 0.000124 ± 9.4e-06 s⁻¹
A6U U30G | 4.09e-05 ± 8.6e-06 s⁻¹ | – | – | 4.14e-05 ± 1.3e-05 s⁻¹ | 3.5e-05 ± 9.7e-06 s⁻¹ | – | < 1e-05 s⁻¹
A12G A64G | 0.000701 ± 0.00021 s⁻¹ | 2560 ± 1100 µM | 0.000128 ± 1.7e-05 s⁻¹ | 0.000367 ± 5.3e-05 s⁻¹ | 0.000537 ± 0.00017 s⁻¹ | 6.59e-05 ± 1.7e-05 s⁻¹ | –
G13U U56A | 0.0005 ± 2.3e-05 s⁻¹ | 1880 ± 150 µM | 0.000124 ± 1.6e-05 s⁻¹ | 0.000287 ± 3.6e-05 s⁻¹ | 0.000422 ± 8.8e-05 s⁻¹ | 4.35e-05 ± 1.3e-05 s⁻¹ | –

Variant | kcat (glucosamine-6-phosphate [1]) | KM (glucosamine-6-phosphate [2]) | self-cleavage kobs at 640 uM GlcN6P (glucosamine-6-phosphate [3]) | self-cleavage kobs at 2500 uM GlcN6P (glucosamine-6-phosphate [4]) | self-cleavage kobs at 10000 uM GlcN6P (glucosamine-6-phosphate [5]) | self-cleavage kobs at 160 uM GlcN6P (glucosamine-6-phosphate [6]) | self-cleavage kobs at 40 uM GlcN6P (glucosamine-6-phosphate [7])
G37U A52G | < 1e-05 s⁻¹ | – | < 1e-05 s⁻¹ | – | – | – | < 1e-05 s⁻¹
A6C C34A G37A G38A G63U C68U C70G | 1.43e-05 ± 4.9e-06 s⁻¹ | – | < 1e-05 s⁻¹ | – | – | – | –
C10A U47A U57A C70U | 3.44e-05 ± 1.3e-05 s⁻¹ | – | – | – | – | – | –
C50U U54G | 2.58e-05 ± 7.2e-06 s⁻¹ | – | – | 4e-05 ± 1.6e-05 s⁻¹ | – | – | –
U55C U56C | 9.63e-05 ± 1.9e-05 s⁻¹ | – | 4.92e-05 ± 2e-05 s⁻¹ | 5.28e-05 ± 1e-05 s⁻¹ | 8.84e-05 ± 1.5e-05 s⁻¹ | – | –
C10A C68A | 1.98e-05 ± 3.8e-06 s⁻¹ | – | – | – | – | – | –
A53G U55G | 0.0437 ± 0.021 s⁻¹ | – | 0.00936 ± 0.0021 s⁻¹ | 0.0152 ± 0.0045 s⁻¹ | 0.0622 ± 0.015 s⁻¹ | 0.00323 ± 0.0008 s⁻¹ | 0.0007 ± 8.8e-05 s⁻¹
A12G U65A | 0.0002 ± 5.7e-06 s⁻¹ | 3880 ± 230 µM | 2.72e-05 ± 6.7e-06 s⁻¹ | 7.94e-05 ± 8.3e-06 s⁻¹ | 0.000143 ± 1.2e-05 s⁻¹ | – | –
G32A U69A | 9.02e-05 ± 2.8e-05 s⁻¹ | – | – | 9.73e-05 ± 1.8e-05 s⁻¹ | 7.45e-05 ± 1.1e-05 s⁻¹ | – | –
G13C C68U | < 1e-05 s⁻¹ | – | < 1e-05 s⁻¹ | – | – | < 1e-05 s⁻¹ | < 1e-05 s⁻¹
G37U C61A | 1.07e-05 ± 1.5e-06 s⁻¹ | – | – | – | < 1e-05 s⁻¹ | – | –
U45C U57C | 1.67e-05 ± 1e-06 s⁻¹ | 6920 ± 1000 µM | – | – | – | – | –
A48U A53G | 0.000396 ± 3.6e-05 s⁻¹ | 1560 ± 290 µM | 0.000127 ± 1.9e-05 s⁻¹ | 0.000229 ± 3.5e-05 s⁻¹ | 0.000349 ± 4.7e-05 s⁻¹ | 2.96e-05 ± 1.2e-05 s⁻¹ | –
G13C A15U | 0.000131 ± 1.4e-05 s⁻¹ | 2810 ± 940 µM | 3.78e-05 ± 1e-05 s⁻¹ | 5.63e-05 ± 7.5e-06 s⁻¹ | 0.000103 ± 6.3e-06 s⁻¹ | – | –
A42C G66U | 1.53e-05 ± 2e-06 s⁻¹ | – | – | – | – | – | –
U45G C58A | 0.000297 ± 2.9e-05 s⁻¹ | 3170 ± 620 µM | 4.61e-05 ± 9.8e-06 s⁻¹ | 0.000147 ± 2.3e-05 s⁻¹ | 0.00022 ± 2.6e-05 s⁻¹ | – | –
A15U C68U | 0.000466 ± 3e-05 s⁻¹ | 1610 ± 210 µM | 0.000127 ± 9.9e-06 s⁻¹ | 0.000277 ± 2.2e-05 s⁻¹ | 0.000409 ± 2.7e-05 s⁻¹ | 4.94e-05 ± 7.4e-06 s⁻¹ | 1.92e-05 ± 9.6e-06 s⁻¹
